{"source": "patent US8673311B2", "about": "(priority 2009, dated 2014)", "test_system": "PY79 spores", "assay_type": "physicochemical, B. subtilis"}
{"substance": "listeriolysin from Listeria monocytogenes: immunogen shown to bind to the spore", "values": [{"measurement": "binding of other immunogens to the spore", "result": "can bind to the spore in a pH-dependant manner"}]}
